The values below come from US20250163145A1 (SHIONOGI, published 2025).

A word on the IC50: it is the concentration that inhibits the measured activity by half. Lower therefore signals higher potency.

Positions count from the first letter of the chain named. Where two headings read alike, the source gives them in different places. Where no end group is shown, it is not given here.

The target of experiment [1] is T1, epitope peptide Cys-CE3C long (also: biotin label, site not given here).
T1 peptide: CSVNVDKQPKYEYSL
Put plainly: competitive ELISA (Example 5). As for the experimental part:
(§1) A diluted solution of the obtained recombinant humanized antibody, a biotin-labeled immunogen peptide, and Streptavidin-HRP (manufactured by PIERCE) were added to an anti-human IgG antibody-immobilized plate, and reacted overnight at 4° C. […] Next, a recombinant human antibody at the dilution rate, a biotin-labeled immunogen peptide, and Streptavidin-HRP (manufactured by PIERCE) were added. At the same time, a dilution series of unlabeled immunogenic peptide was added and reacted overnight at 4° C. After washing twice with ELISA wash buffer, TMB-Substrate Chromogen (manufactured by Thermo Fisher Scientific) was added to develop color, the reaction was stopped with an equal amount of 0.5N sulfuric acid, and the absorbance at 450 nm was measured. The concentration of the unlabeled peptide which attenuated the signal of the biotin-labeled peptide by half was defined as the affinity (IC50).
(In general: In an ELISA, binding on a coated surface is turned into a signal by an enzyme label.)

Experiment [2] deals with T1, epitope peptide Cys-CE3C long. Put plainly: competitive ELISA, unlabeled vs biotin-labeled peptide, antibody on anti-human IgG plate. How it is done: as §1
A mutant having the heavy chain variable region represented by IGHV7-4-1 Q43R, G44S, N58L, N100D, T100aD, R94P (SEQ ID NO: 33) and the light chain variable region represented by IGKV4-1 (SEQ ID NO: 18) produced in Example 3 was produced. New mutants (h15H11-55 to 67) were produced in which various mutations were introduced into the light chain human framework sequence of the produced mutants, and affinity evaluation was performed on the produced mutants by the method described in Example 5.

The target is the same in experiment [3]. Described as above. How it is done: as §1
Mutants (h15H11-44 to 54) in which various mutations were introduced into the light chain human framework sequence of h15H11-2 (heavy chain variable region: IGHV7-4-1 Q43R, G44S, N58L, N100D, T100aD, R94P (SEQ ID NO: 33)/light chain variable region: IGKV7-3 E27D, M33L, Y36F, V78M (SEQ ID NO: 55)) produced in Example 7 were produced. Affinity evaluation was performed on the produced mutants by the method described in Example 5.

B1: h15H11 heavy chain CDR mutant A101V (antibody, human IgG4 S228P, kappa, name in Kabat numbering, V domains shown)
VH: QVQLVQSGSELKKPGASVKVSCKASGYTFTDYNMHWVRQAPGRSLEWMGRINPKNGVINSNEKFKDRFVFSLDTSVSTAYLQISSLKAEDTAVYYCAPSYYGGNTDVYWGQGTLVTVSS
VL: DIVLTQSPASLAVSPGQRATITCRASESVDNYGISFMNWFQQKPGQPPKLLIYAASSQGSGVPARFSGSGSGTDFTLTINPMEANDTANYYCQQSKEFPWTFGGGTKVEIKR
notes: hIgG4Pro/hIgK
As to B1, the binding result in experiment [1] is “no binding (tested: below the detection limit)”.

B2: h15H11-60 (antibody, human IgG4 S228P, kappa, V domains shown)
VH: B1 VH with N59L, N104D, T105D, V107A
VL: DIVMTQSPDSLAVSLGERATINCRASDSVDNYGISFLNWFQQKPGQPPKLLIYAASSQGSGVPDRFSGSGSGTDFTLTISSMQAEDVAVYYCQQSKEFPWTFGGGTKVEIKR
notes: hIgG4Pro/hIgK
B2 gave an IC50 in experiment [2] of 0.79 nM.

B3: h15H11-63 (antibody, human IgG4 S228P, kappa, V domains shown)
VH: B1 VH with N59L, N104D, T105D, V107A
VL: B2 VL with V87T
notes: hIgG4Pro/hIgK
For the molecule B3, the IC50 in experiment [2] was determined as 0.64 nM.

B4: h15H11-59 (antibody, human IgG4 S228P, kappa, V domains shown)
VH: B1 VH with N59L, N104D, T105D, V107A
VL: B2 VL with S80N, S81P
notes: hIgG4Pro/hIgK
B4 returned an IC50 in experiment [2] of 0.8 nM.

B5: h15H11-56 (antibody, human IgG4 S228P, kappa, V domains shown)
VH: B1 VH with N59L, N104D, T105D, V107A
VL: B2 VL with D27E, L37M, S80N, S81P
notes: hIgG4Pro/hIgK
In turn, B5 returned an IC50 in experiment [2] of 0.85 nM.

B6: h15H11-58 (antibody, human IgG4 S228P, kappa, V domains shown)
VH: B1 VH with N59L, N104D, T105D, V107A
VL: B2 VL with V89M
notes: hIgG4Pro/hIgK
As to B6, the IC50 in experiment [2] was 0.78 nM.

B7: h15H11-62 (antibody, human IgG4 S228P, kappa, V domains shown)
VH: B1 VH with N59L, N104D, T105D, V107A
VL: B2 VL with Q83E
notes: hIgG4Pro/hIgK
For the molecule B7, in experiment [2], the IC50 was determined as 0.73 nM.

B8: h15H11-57 (antibody, human IgG4 S228P, kappa, V domains shown)
VH: B1 VH with N59L, N104D, T105D, V107A
VL: B2 VL with D27E, L37M
notes: hIgG4Pro/hIgK
For B8, the IC50 in experiment [2] amounted to 0.89 nM.

B9: h15H11-55 (antibody, human IgG4 S228P, kappa, V domains shown)
VH: B1 VH with N59L, N104D, T105D, V107A
VL: B2 VL with D27E, L37M, V89M
notes: hIgG4Pro/hIgK
In turn, B9 returned an IC50 in experiment [2] of 0.82 nM.

B10: h15H11-65 (antibody, human IgG4 S228P, kappa, V domains shown)
VH: B1 VH with N59L, N104D, T105D, V107A
VL: B2 VL with D64A, V89M
notes: hIgG4Pro/hIgK
On to B10, for which, in experiment [2], the half-inhibitory concentration (IC50) amounted to 0.75 nM.

B11: h15H11-50 (antibody, human IgG4 S228P, kappa, V domains shown)
VH: B1 VH with N59L, N104D, T105D, V107A
VL: B1 VL with E27D, M37L, N85I
notes: hIgG4Pro/hIgK
For B11, in experiment [3], the IC50 stood at 0.55 nM.

B12: h15H11-53 (antibody, human IgG4 S228P, kappa, V domains shown)
VH: B1 VH with N59L, N104D, T105D, V107A
VL: B1 VL with E27D, M37L, N85G
notes: hIgG4Pro/hIgK
In experiment [3], B12 returned an IC50 of 0.55 nM.

B13: h15H11-44 (antibody, human IgG4 S228P, kappa, V domains shown)
VH: B1 VH with N59L, N104D, T105D, V107A
VL: B1 VL with E27D, M37L, N85E
notes: hIgG4Pro/hIgK
Turning to B13, in experiment [3], the half-inhibitory concentration (IC50) was found to be 0.51 nM.

B14: h15H11-61 (antibody, human IgG4 S228P, kappa, V domains shown)
VH: B1 VH with N59L, N104D, T105D, V107A
VL: B2 VL with S80N, S81P, Q83E, V87T, V89N
notes: hIgG4Pro/hIgK
The molecule B14 gave an IC50 in experiment [2] of 0.79 nM.

B15: h15H11-46 (antibody, human IgG4 S228P, kappa, V domains shown)
VH: B1 VH with N59L, N104D, T105D, V107A
VL: B1 VL with E27D, M37L, N85Q
notes: hIgG4Pro/hIgK
Take B15: the IC50 in experiment [3] was determined as 0.5 nM.

B16: h15H11 light chain CDR mutant P95G (antibody, human IgG4 S228P, kappa, name in Kabat numbering, V domains shown)
VH: B1 VH with V107A
VL: B1 VL with P99G
notes: hIgG4Pro/hIgK
As to B16, the binding result in experiment [1] is given as “no binding (tested: below the detection limit)”.

B17: h15H11-47 (antibody, human IgG4 S228P, kappa, V domains shown)
VH: B1 VH with N59L, N104D, T105D, V107A
VL: B1 VL with E27D, M37L, N85F
notes: hIgG4Pro/hIgK
On to B17, for which the IC50 in experiment [3] was found to be 0.53 nM.

B18: h15H11-48 (antibody, human IgG4 S228P, kappa, V domains shown)
VH: B1 VH with N59L, N104D, T105D, V107A
VL: B1 VL with E27D, M37L, N85L
notes: hIgG4Pro/hIgK
With B18, the IC50 in experiment [3] came to 0.51 nM.

B19: h15H11-52 (antibody, human IgG4 S228P, kappa, V domains shown)
VH: B1 VH with N59L, N104D, T105D, V107A
VL: B1 VL with E27D, M37L, N85R
notes: hIgG4Pro/hIgK
For the molecule B19, the IC50 in experiment [3] is 0.5 nM.

B20: h15H11-45 (antibody, human IgG4 S228P, kappa, V domains shown)
VH: B1 VH with N59L, N104D, T105D, V107A
VL: B1 VL with E27D, M37L, N85A
notes: hIgG4Pro/hIgK
In turn, B20 yielded a 50% inhibitory concentration (IC50) in experiment [3] of 0.5 nM.

B21: h15H11-51 (antibody, human IgG4 S228P, kappa, V domains shown)
VH: B1 VH with N59L, N104D, T105D, V107A
VL: B1 VL with E27D, M37L, N85D
notes: hIgG4Pro/hIgK
As to B21, the IC50 in experiment [3] came out at 0.63 nM.

B22: h15H11-54 (antibody, human IgG4 S228P, kappa, V domains shown)
VH: B1 VH with N59L, N104D, T105D, V107A
VL: B1 VL with E27D, M37L, D86P
notes: hIgG4Pro/hIgK
With B22, the IC50 in experiment [3] was determined as 0.72 nM.

B23: h15H11 heavy chain CDR mutant M34L (antibody, human IgG4 S228P, kappa, name in Kabat numbering, V domains shown)
VH: B1 VH with M34L, V107A
VL: B1 VL
notes: hIgG4Pro/hIgK
Consider B23, for which the binding result in experiment [1] is recorded as “no binding (tested: below the detection limit)”.

B24: h15H11-49 (antibody, human IgG4 S228P, kappa, V domains shown)
VH: B1 VH with N59L, N104D, T105D, V107A
VL: B1 VL with E27D, M37L, N85V
notes: hIgG4Pro/hIgK
Turning to B24, the IC50 in experiment [3] stood at 0.62 nM.

B25: h15H11-64 (antibody, human IgG4 S228P, kappa)
heavy: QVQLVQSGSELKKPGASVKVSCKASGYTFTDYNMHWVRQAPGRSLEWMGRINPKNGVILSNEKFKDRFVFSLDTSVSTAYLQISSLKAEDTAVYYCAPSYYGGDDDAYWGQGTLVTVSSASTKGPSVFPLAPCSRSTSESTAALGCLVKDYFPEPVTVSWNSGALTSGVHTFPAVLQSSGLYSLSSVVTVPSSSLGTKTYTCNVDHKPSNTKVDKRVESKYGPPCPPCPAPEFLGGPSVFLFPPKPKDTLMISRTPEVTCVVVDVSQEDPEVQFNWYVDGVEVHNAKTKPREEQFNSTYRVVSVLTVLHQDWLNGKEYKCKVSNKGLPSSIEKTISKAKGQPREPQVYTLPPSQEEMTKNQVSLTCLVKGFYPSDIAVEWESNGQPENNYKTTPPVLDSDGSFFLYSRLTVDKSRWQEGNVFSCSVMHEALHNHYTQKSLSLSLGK
light: DIVMTQSPDSLAVSLGERATINCRASDSVDNYGISFLNWFQQKPGQPPKLLIYAASSQGSGVPARFSGSGSGTDFTLTISSMQAEDVAVYYCQQSKEFPWTFGGGTKVEIKRTVAAPSVFIFPPSDEQLKSGTASVVCLLNNFYPREAKVQWKVDNALQSGNSQESVTEQDSKDSTYSLSSTLTLSKADYEKHKVYACEVTHQGLSSPVTKSFNRGEC
notes: hIgG4Pro/hIgK
Take B25: in experiment [2], the IC50 is 0.68 nM.

B26: h15H11-67 (antibody, human IgG4 S228P, kappa)
heavy: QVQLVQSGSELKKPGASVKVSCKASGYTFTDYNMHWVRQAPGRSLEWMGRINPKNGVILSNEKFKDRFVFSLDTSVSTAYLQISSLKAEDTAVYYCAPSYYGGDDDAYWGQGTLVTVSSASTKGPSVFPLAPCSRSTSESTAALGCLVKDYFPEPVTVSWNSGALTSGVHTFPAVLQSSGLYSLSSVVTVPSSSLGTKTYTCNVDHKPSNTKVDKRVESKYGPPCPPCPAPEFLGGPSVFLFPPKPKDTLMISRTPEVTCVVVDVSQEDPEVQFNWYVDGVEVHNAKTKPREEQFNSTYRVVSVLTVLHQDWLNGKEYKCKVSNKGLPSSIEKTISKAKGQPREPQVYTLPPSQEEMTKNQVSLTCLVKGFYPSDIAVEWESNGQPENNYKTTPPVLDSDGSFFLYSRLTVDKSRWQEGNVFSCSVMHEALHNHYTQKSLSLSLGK
light: B25 light with M4L, D9A, E17Q
notes: hIgG4Pro/hIgK
In experiment [2], B26 had an IC50 of 0.46 nM.

B27: h15H11-66 (antibody, human IgG4 S228P, kappa)
heavy: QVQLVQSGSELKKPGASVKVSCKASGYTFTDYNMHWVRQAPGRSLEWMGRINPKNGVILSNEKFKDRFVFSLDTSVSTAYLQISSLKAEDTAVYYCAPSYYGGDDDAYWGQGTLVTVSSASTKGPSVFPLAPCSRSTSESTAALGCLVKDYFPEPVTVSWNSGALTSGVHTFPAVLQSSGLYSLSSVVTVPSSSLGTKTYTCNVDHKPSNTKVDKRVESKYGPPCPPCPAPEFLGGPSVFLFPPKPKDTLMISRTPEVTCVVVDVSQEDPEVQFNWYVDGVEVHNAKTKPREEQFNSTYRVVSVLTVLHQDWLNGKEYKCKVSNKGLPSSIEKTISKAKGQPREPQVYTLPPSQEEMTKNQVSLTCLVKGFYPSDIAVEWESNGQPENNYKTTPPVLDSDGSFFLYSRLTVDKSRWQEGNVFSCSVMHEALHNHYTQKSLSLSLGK
light: B25 light with M4L, D9A
notes: hIgG4Pro/hIgK
For B27, in experiment [2], the IC50 stood at 0.53 nM.
